Laboratory results as given in patent US20240010680A1, “PEPTIDE DISINFECTANT FOR PREVENTING CORONAVIRUSES” (Xiamen University, priority 2021, published 2024).

Molecular target: hACE2-His purified protein (human (printed as hACE2)) (UniProt Q9BYF1)
Sequence (Q9BYF1 18-740 limits assumed): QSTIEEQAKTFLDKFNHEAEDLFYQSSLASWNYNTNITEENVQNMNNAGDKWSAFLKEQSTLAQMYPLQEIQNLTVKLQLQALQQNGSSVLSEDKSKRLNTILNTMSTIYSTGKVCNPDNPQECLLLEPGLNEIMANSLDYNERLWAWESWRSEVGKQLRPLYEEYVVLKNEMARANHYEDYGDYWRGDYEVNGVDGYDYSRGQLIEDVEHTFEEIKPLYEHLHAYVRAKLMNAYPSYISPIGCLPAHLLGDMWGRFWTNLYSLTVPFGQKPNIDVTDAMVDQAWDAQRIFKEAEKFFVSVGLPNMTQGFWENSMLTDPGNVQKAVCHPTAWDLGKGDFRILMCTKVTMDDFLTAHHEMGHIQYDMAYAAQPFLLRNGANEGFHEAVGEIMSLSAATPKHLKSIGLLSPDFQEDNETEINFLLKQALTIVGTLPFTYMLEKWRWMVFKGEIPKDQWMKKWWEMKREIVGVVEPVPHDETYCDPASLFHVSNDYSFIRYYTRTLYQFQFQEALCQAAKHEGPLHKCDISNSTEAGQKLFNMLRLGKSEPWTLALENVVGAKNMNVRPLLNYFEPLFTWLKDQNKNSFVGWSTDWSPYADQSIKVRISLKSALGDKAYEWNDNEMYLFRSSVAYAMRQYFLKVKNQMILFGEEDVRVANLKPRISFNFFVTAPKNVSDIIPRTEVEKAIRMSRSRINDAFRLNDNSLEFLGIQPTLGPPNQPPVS

S1-HA purified protein (ligand) showed a Relative brightness value of 100%.
